In general, IC50 refers to the midpoint of a concentration-inhibition curve.

Where a chain is given by its changes, count along the chain named. Bounds are passed on as bounds.

Data on 28 molecules can be found in patent US20090291081A1 (AbbVie / Abbott, published 2009).

T1: human IL-1α (human, UniProt P01583 113-271)
T1 construct: also called IL-1alpha; hIL-1α
T1 sequence (looked up): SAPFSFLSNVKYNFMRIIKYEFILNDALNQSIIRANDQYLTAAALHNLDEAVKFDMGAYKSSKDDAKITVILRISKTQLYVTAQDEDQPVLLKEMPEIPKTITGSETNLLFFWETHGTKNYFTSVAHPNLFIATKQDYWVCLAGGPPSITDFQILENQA

B1: ABT1-95-161 (other)
VL: DIQMTQSPSSLSASVGDRVTITCRASQPIVRNLRWYQQKPGKAPKLLIYSSSYLEPGVPSRFSGSGSGTDFTLTISSLQPEDFATYHCQQGYRWPPTFGQGTKVEIKR
notes: VK dAb
B2: ABT1-163 (other)
VL: DIQMTQSPSSLSASVGDRVTITCRASGNIVHNLRWYQQKPGKAPKLLIYAASRLQSGVPSRFSGSGSGTDFTLTISSLQPEDFATYYCAQGYEWPLTFGQGTKVEIKQ
notes: VK dAb
B3: ABT1-164 (other)
VL: DIQMTQSPSSLSASVGDRVTITCRASRPIAGNLRWYQQKPGKAPKLLIWGASSLQSGVPSRFSGSGSGTDFTLTISSLQPEDFATYYCVQGWQWPITFGQGTKVEIKR
notes: VK dAb
B4: ABT1-122-18 (other)
VL: DIQMTQSPSSLSASVGDRVTITCRASQPIWTELNWYQQKPGKAPKLLVYGSSSLQSGVPSRFSGSGSGTDFTLTISSLQPEDFATYYCQQFAYFPATFGQGTKVEIKR
notes: VK dAb
B5: ABT1-122-511 (other)
VL: B4 VL with V48I, S56R, Q89K
notes: VK dAb
B6: ABT1-122-21 (other)
VL: B4 VL with V48I, S60T
notes: VK dAb
B7: ABT1-161 (other)
VL: DIQMTQSPSSLSASVGDRVTITCRASHAITGSLRWYQQKPGKAPKLLISGGSVLQSGVPSRFSGSGSGTDFTLTISSLQPEDFATYYCAQWLGGPMTFGQGTKVEIKR
notes: VK dAb
B8: ABT1-141-43 (other)
VL: DIQMTQSPSSLSASVGDRVTITCRASQWIQKQLAWYQQKPGKAPKLLIYSSSYLQSGVPPRFSGSGSGTDFTLTISSLQPEDFATYYCQQHLRVPMTFGQGTKVEIKR
notes: VK dAb
B9: ABT1-141-49 (other)
VL: B8 VL with Q38L, Y53H, L54S, P60S
notes: VK dAb
B10: ABT1-141-51 (other)
VL: B8 VL with A43V, P60S, Q79E, E105V
notes: VK dAb
B11: ABT1-141-77 (other)
VL: B8 VL with S26N, Y49F, Y53H, P60S, E81Q
notes: VK dAb
B12: ABT1-141-80 (other)
VL: B8 VL with S26N, Y53H, P60S, S67Y
notes: VK dAb
B13: ABT1-141-48 (other)
VL: B8 VL with Y49F, Y53H, P60S, T85S
notes: VK dAb
B14: ABT1-141-79 (other)
VL: B8 VL with S26N, Y49F, Y53H, P60S
notes: VK dAb
B15: ABT1-141-70 (other)
VL: B8 VL with Y53H, P60S, S67Y
notes: VK dAb
B16: ABT1-141-78 (other)
VL: B8 VL with S26N, Y53H, P60S, S67Y, E81Q
notes: VK dAb
B17: ABT1-141-50 (other)
VL: B8 VL with A43T, P60S, K103N
notes: VK dAb
B18: ABT1-141-45 (other)
VL: B8 VL with P60S, P80L, F98L
notes: VK dAb
B19: ABT1-141-53 (other)
VL: B8 VL with Q38L, A43T, Y49F, P60S
notes: VK dAb
B20: ABT1-141-47 (other)
VL: B8 VL with S26N, Y53H, P60S, E81Q
notes: VK dAb
B21: ABT1-141-76 (other)
VL: B8 VL with S26N, Y53H, P60S
notes: VK dAb
B22: ABT1-92 (other)
VH: EVQLLESGGGLVQPGGSLRLSCAASGFTFSTYTMTWVRQAPGKGLEWVSTIFPGGSTTYYADSVKGRFTISRDNSKNTLYLQMNSLRAEDTAVYYCAKYVDFVKLSFDYWGQRTLVTVSS
notes: VH dAb
B23: ABT1-93 (other)
VH: EVQLLESGGGLVQPGGSLRLSCAASGFTFNEYNMVWVRQAPGKGLEWVSSISGGGGFTYYADSVKGRFTISRDNSKNTLYLQMNSLRAEDTAVYYCAKPLRGFVCSQHCSFDYWGQGTLVTVSS
notes: VH dAb
B24: ABT1-6-15 (other)
VH: EVQLLESGGGLVQPGGSLRLSCAASGFTFVRYDMAWVRQAPGKGLEWVSSINKSGALTSYADSVKGRFTISRDNSKNTLYLQMNSLRAEDTAVYYCAKGWASFDYWGQGTLVTVSS
notes: VH dAb
B25: ABT1-6 (other)
VH: B24 VH with V30G, R31A, A35Q
notes: VH dAb
B26: ABT1-6-3 (other)
VH: B24 VH with V30G, R31A, A35Q, N52Y
notes: VH dAb
B27: ABT1-148 (other)
VL: DIQMTQSPSSLSASVGDRVTITCRASQSISSYLNWYQQKPGKAPKLLIGALSGLQSGVPSRFSGSGSGTDFTLTISSLQPEDFATYYCMQWYRHPSTFGQGTKVEIKR
notes: VK dAb
B28: ABT1-158 (other)
VL: DIQMTQSPSSLSASVGDRVTITCRASRSIGRGLNWYQQKPGKAPKLLIGGWSGLQSGVPSRFSGSGSGTDFTLTISSLQPEDFATYYCAQASPLPTFGQGTKVEIKR
notes: VK dAb

One assay has as its target T1, human IL-1α. The experiment in a line: Table 62 IC50; RBA presumed.
The molecule B1 came in with an IC50 of 0.1 nM.

With B2, the IC50 worked out at 1000 nM.

In the case of B3, the IC50 was > 1000 nM.

B4 came in with an IC50 of 5 nM.

B5 yielded a half-inhibitory concentration (IC50) of 10 nM.

On to B6, for which the IC50 came out at 80 nM.

Take B7: the concentration for half-maximal inhibition (IC50) is > 1000 nM.

B8: the IC50 amounted to 3 nM.

Consider B9, for which the IC50 turned out to be 3 nM.

B10: the 50% inhibitory concentration (IC50) was found to be 10 nM.

The molecule B11 came in with an IC50 of 3 nM.

In the case of B12, it took 3 nM to reach half-maximal inhibition (IC50).

In turn, B13 gave an IC50 of 3 nM.

B14 returned an IC50 of 3 nM.

Molecule B15 came in with an IC50 of 1 nM.

In turn, B16 had an IC50 of 3 nM.

B17 gave a half-maximal inhibitory concentration (IC50) of 10 nM.

B18 yielded an IC50 of 100 nM.

The molecule B19 showed a concentration for half-maximal inhibition (IC50) of 50 nM.

As for B20, the concentration for half-maximal inhibition (IC50) was 1 nM.

B21 yielded a concentration for half-maximal inhibition (IC50) of 1 nM.

As to B22, the half-inhibitory concentration (IC50) is > 10000 nM.

With B23, the IC50 was > 10000 nM.

Regarding B24, the IC50 came to 200 nM.

Molecule B25 yielded an IC50 of 3000 nM.

The molecule B26 registered a 50% inhibitory concentration (IC50) of 80 nM.

As for B27, the half-maximal inhibitory concentration (IC50) is 400 nM.

B28 came in with a concentration for half-maximal inhibition (IC50) of 2 nM.

The target of another assay is T1, human IL-1α. The experiment in a line: cell-based or functional assay.
Turning to B1, the ND50 came out at 0.5 nM.

B2 had an ND50 of 105 nM.

The molecule B3 returned an ND50 of 14 nM.

The molecule B4 came in with an ND50 of 7 nM.

Molecule B5 displayed an ND50 of 18 nM.

B6 showed an ND50 of 100 nM.

For the molecule B7, the ND50 turned out to be 8 nM.

B8: the ND50 was 5 nM.

In turn, B9 yielded an ND50 of 5 nM.

Molecule B10 had an ND50 of 20 nM.

B11: the ND50 was 1 nM.

In turn, B12 yielded an ND50 of 1.7 nM.

For the molecule B13, the ND50 turned out to be 1 nM.

The molecule B14 registered an ND50 of 2.4 nM.

Turning to B15, the ND50 worked out at 1 nM.

Molecule B16 came in with an ND50 of 0.7 nM.

Regarding B17, the ND50 was 20 nM.

With B18, the ND50 is 100 nM.

In turn, B19 showed an ND50 of 10 nM.

On to B20, for which the ND50 was 1 nM.

On to B21, for which the ND50 came out at 1 nM.

Regarding B22, the ND50 is > 10000 nM.

Take B23: the ND50 came to 5000 nM.

As for B24, the ND50 was determined as 500 nM.

Regarding B25, the ND50 was found to be 3000 nM.

As for B26, the ND50 worked out at 60 nM.

As to B27, the ND50 amounted to 100 nM.

Regarding B28, the ND50 is < 100 nM.
